Each sequence was assayed on K4 kissing-loop RNA reporter (assay: apparent KD of K4 kissing-loop reporter; higher = weaker reporter binding). Conditions: Eterna round: R107; input ligand: arginine 13.2 mM.
Protocol: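 RNA-MaP round R107: designed RNA switches with theophylline, tryptophan, arginine or FMN aptamers are transcribed on-chip within common flanks. They are titrated with a labelled K4 kissing-loop RNA reporter in RNA-MaP buffer (100 mM Tris pH 7.5, 80 mM KCl, 4 mM MgCl2), without ligand or with the indicated ligand. Median apparent KD per design.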
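Further: bound reporter read as fluorescence of individual clusters on recovered sequencing chips by microscopy, with normalized cluster intensities fitted with a binding model.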

Sequence	apparent KD of K4 kissing-loop reporter [nM]
GGUGCUGUCUGUGCCGCCCUCCUCGUUCCUCGAGGACCGGUACGGCCGCCACUCGAGUGAUGUUCGGGUAGCGAUCCCUGCUAGC [Bdazzled - #17 Exc. Tryptophan A]	176
AAACAGCACUGGGAGUGAUGUUCUCAGUGACGAGGACCGGUACGGCCGCCACUCGCGAGAGAACUAGUCUAGACUUGACUGCAUA [Excl Tryptophan A V15]	138
GGAUAGGACAGAGGAUAUGGUAGUGAUGUUACCAACAGCCUACUGUCAAUAAAGACGGUUGGCUGACCAGAAGGCUGUCCUAUCG [Mod of Eli's FmnBX 26 v1]	132
ACCAUCAAAGAUGGCCAGGACUCAACUGAUACCAGAGUGGAGACACUCCCUUGGCAGCAGGUGAGUGAUGUUCACGAGUCCUGGA [Omel KL Theo A SS B v9]	801
AGGUUUUGAUCAGGAUAUGCAUUGACGAUGAGAAUAUAGUGAUGUUAUAUACUACGAAUUAGUAAAGUAGAAGGGAUUGAGGUUU [SSFMNB.aB]	565
UUUUAAAUGUCUGAUACCAGAGAAAAUUUAUGUAGUGAUGUUAUAUACAAAUUAAAUAAGCUCCCUUGGCAGCAGUAUUAAUUUU [AstrosExc-TheB#9]	596

Same assay, conditions: Eterna round: R107; input ligand: none

Sequence	apparent KD of K4 kissing-loop reporter [nM]
GUAUCGCUAGGAGGAUAUUUCAAAUAAUAAAUAAAUGGAUAUUCGGAGUGAUGUUCCGAUUUACGGAAAGAAGGCCUAGUGAUAC [FMN B 2]	157
AAACAUCACUGGGAGUGAUGUUCUCAGUGACGAGGACCGGUACGGCCGCCACUCGCGAGAGAUAUAAUUAAGUAAUGACAUCAUU [Excl Tryptophan A V6]	274
ACCUAGUAGACAGGAUAUCACCAUGACAGUGAUGUUGUCAUGCUCGAUUUGAGGAAACUCAGAUCGUGAGAAGGGUCUAACGACU [FMN B SS t7]	170
CCUAUCUCAUACGAUACCAGUGAAUUUAUAUUUAUUAGCAGUGAUGUUGCAUUCCAAGUACACCCUUGGCAGCGUAUGGGAUAGG [Ex Theophylline B K4 22]	178
UCCUAGGCUCGAAAGAGCCUAGGAUUGACUCAGGAUAUCCGGAAACGGAGAAGGGAGUCACUAGUGAUGUUAGGGAUUCCCUAUU	100
GGAUAGGACAGAGGAUAUCUCUGAGGCAAGAAAACUUGUCUCAAAAGAGAUGACUCAGUGAUGUUGAGAGAAGGCUGUCCUAUCG [FmnBX 8 - #SwitchBubble #StaticStem]	144
GGGCCUAUUGAUGCUGGAGCAAUUCUGGAAGGAGCGCUCAAAGGAGCAGGUAGGUCGCCAGUAUGCAAGGGCAGUGAUGUUGCCC [Ersoarxe]	233
UGGAUGUAGUGAUGUUAUAUAGAGAGUGAUACCAGUUUAGAGAAGAACCCUUGGCAGCAUAGAAGAGUAUCAUUGGAGAAGAAUG [ExTheophyl.Ar]	320
UUAGCCUAGCCAUAGUGAUGUUGUGGAAUACGAGGACCGGUACGGCCGCCACUCGCUCGACGGUGAUGACAUCAACGACCUUUAU [theeternabot_sameState_KL_Trp_A_38]	311
AGUACGGACGCGGCCGCCACUCAGGAGAAGAAGGUAGUGAUGUUGCUUAUGGAGAGAUCAAUCAAGAGGACCGGGUGCCGUGCAA [#07 K4 Tryptophan B Same State]	426
UGGCGGCAAGGGUUAUUGGAAAGUAUUCGUCGAGGACCGGUACGGCCGCCACUCGAACACCAGUGAUGUUGGUCUGGUUUAAGCU [Exclusion Tryptophan A GF 22]	540
UCGCUCGAGUAAGGAUAUCAAUAUCAAAGGUCGUAGUGAUGUUAUACCAGGCCAAUUUGGCGGUAGUGAGAAGGUACUAGCAGUU [theeternabot_sameState_KL_FMN_B_38]	688
GGAUAGGAUAGAGGAUAUGGUUUAUGCAAGAAUAACUUAUCGUGUAAAUCCAUAGGGAGUGAUGUUCCAGAAGGCUGUCCUAUCG [MatMod 12 - Jieux - Exclusion - FMN B]	239
GGAGGCCAGGCCUGCGAAGUGAUGUUUUGACGAGGACCGGUACGGCCGCCACUCGAAUGUUCUAUCAUCGUACGAACUUCUGCGU [theeternabot_exclusion_KL_Trp_A_26]	496
AGUGUUAGGUUAGAUACCAGCCGUUCGUGAAUAGUCUUCGAACCGCCAGUGAUGUUGGCAGGCCCUUGGCAGCUAACAGAACAGA [Lagelare]	198
UGUAAGCGCGUAGAUACCAGCAGACGAGUGAUGUUCGAGAGAUUAAGGAAAAGAAAGUGAUGCCCUUGGCAGCUAAUCAUAAGCG [whbob_Ex_Theo_B_sa95]	288
GAGUCGGCACAAGGAUAUAGGUGUAGUGAUGUUAUGUCUCCUUGACUCACUCGUUACCCUCAACGUCUAGAAGGUGUGAAUGCAG [theeternabot_exclusion_KL_FMN_B_46]	290
CGCGCGCGCCGCAAGGCGCGCGCGAACGAUACCAGUAUAUAAGAAUACCCUUGGCAGCGUAAGAAAGCUAUAGUGAUGUUGUAGA [#19 K4 Theophylline A Same State]	226
AUUUUUUUAUCAGGAUAUUAGUGUUGGUUUGUUUUGUUAGUGAUGUUGAUAUUUGUUUUAUGUAUUUAAGAAGGGAUUUAGAUGU [viuupullin]	270
AGGAGCGUGGGAUGAAAAUCGCACGCUCCUCGAGGACCGGUACGGCCGCCACUCGCUCGCGCCGAGUGAUGUUCGGCCGGCGAAC [#2 Same State - Tryptophan A Attempt #12 (HarryS)]	312
AGCAGUCACUCGAAAAACCAUCGAAGAUGGCGAGGACCGGUACGGCCGCCACUCGGAGUGAUGUUCCGAAGACUGCAAAAUAAAA [#SwitchBubble 15]	368
